Results: PMC10748421

Biological target: full-length recombinant human BAX (human) (UniProt Q07812)
Test: not stated; data not shown; BAX stocks at high concentrations

## full-length recombinant human BAX (from UniProt Q07812 1-192) (natural protein)
  stoichiometry N: 2
